Experimental data reported in patent US20020132976A1, “Immunogenic peptides derived from prostate-specific antigen (PSA) and uses thereof” (priority 2000, published 2002).
Marks after values point to notes of the source that are not given here.

Experiments:
[1] = target: T1, HLA-A0201 molecules on T2 cells (Homo sapiens, UniProt P04439, D140Y/D185E/D98H/E176V/E277Q/G131W/G231S/I119V/I121R/I166T/I218V/L300P/L318F/N151K/N90K/P208A/P217A/Q86G/Q94H/R138H/R169H/T345S); assay: Capacity of PSA derived peptides to bind and stabilize HLA-A0201 molecules on T2 cells (BB7.2 antibody, flow cytometry); type: cell-based; conditions: for Fluorescence Index (FI): T2 cells; for HLA-A0201 binding as judged by Fluorescence Index (FI) values: membrane-bound HLA-A0201 molecules on T2 cells
T1 construct: endogenous in cells; host or cells: T2 cell line (Dr. Peter Creswell, Yale University)
Protocol: The ability of the PSA derived peptides described in Table 1 to stabilize membrane-bound HLA-A0201 molecule was assessed utilizing the T2 cell line (Dr. Peter Creswell, Yale University). The cell line has been well documented to have a defective TAP (i.e. Transporter for Antigen Processing) transporter function. As a result, the majority of intracellularly generated peptides are not transported into the endoplasmic reticulum and thus are unable to associate with newly synthesized HLA class 1 MHC molecules (i.e. HLA-A0201; Salter, R D and Creswell, P. (1986) EMBO J 5:943). […] The stability of the surface HLA-A0201 molecules can be restored upon interaction with suitable exogenous peptides. The stabilization of the conformation of the class 1 MHC molecules is accompanied by the formation of an immunodominant epitope recognized by a mouse monoclonal antibody (designated BB7.2; American Type Culture Collection (ATCC)). Thus, the detection of this specific epitope is indicative of stable membrane-bound HLA-A0201 molecules loaded with peptide. Subsequent dissociation of peptides from the HLA class 1 MHC molecules results in the loss of BB7.2 monoclonal antibody binding.
T2 cells were propagated in Iscove's complete medium (iscove's medium supplemented with 10% heat-inactivated bovine serum, 120.0 units per ml of penicillin G sodium, 120 μg per ml of streptomycin sulphate, and 0.35 mg per ml of L-glutamine). The ability of PSA peptides (Table 1) to bind and stabilize surface HLA-A0201 molecules on T2 cells was determined utilizing a protocol documented in the art (Deng, Y. (1997) J Immune 158:1507-1515). In essence, 0.5×10^6 T2 cells were incubated with 125.0 μM of the test peptide in 200.0 μl of serum-free culture medium (Iscove's medium supplemented with 120.0 units per ml of penicillin G sodium, 120.0 μg per ml of streptomycin sulphate and 0.35 mg per ml of L-glutamine) overnight at 37° C. Subsequently, cells were washed twice with Iscove's medium (without bovine serum) to remove free PSA peptide. To the cell pellet was added 1.0 ml of complete Iscove's medium (supplemented with fetal bovine serum (10% final)) containing 5.0 μg per ml of brefeldin A (Sigma), 12.5 μg per ml of anisomycin (Sigma) and 5.0 μg per ml of cyclohexamide (Sigma). […] The cells were subsequently incubated 30 min on ice prior to two washes with ice-cold PBA (phosphate buffered saline (pH 7.2) containing 2.0% bovine serum). 100.0 μl of PBA containing 5.0 μg of monoclonal antibody BB7.2 was added to each test sample. The reaction was allowed to proceed on ice for 45 min. Cells were then washed three times with ice-cold PBA. The binding of BB7.2 was detected via the addition of 100.0 μl of PBA containing […] of goat anti-mouse IgG-Fc fluorescein (FITC) conjugate (BETHYL Laboratories Inc.). After a 30 min incubation on ice, cells were twice washed with ice-cold PBA, and twice with ice-cold PBS (pH 7.2). Cells were immediately fixed by the addition of 50.0 μl of 1.0% paraformaldehyde. Samples were analyzed by Flow Cytometry. Results were expressed in units of Fluorescence Index (FI), calculated by the equation: […]
Mean Fluorescence (MF) of experimental sample (peptide treated)−MF of control sample (cells not peptide treated) MF of control sample (cells not peptide treated)
An FI value of 0.5 or greater was deemed to be significant.

[2] = system: A2Kb transgenic mouse; assay: Immunogenicity of PSA peptide in A2Kb transgenic mice (51Cr-release CTL assay); type: in vivo; conditions: 100.0 μg peptide subcutaneously in IFA with I-Ab-restricted peptide; spleenocytes re-stimulated in vitro; 4 hr 51Cr-release, P815-A2Kb targets; FIG. 1
Protocol: The A2Kb transgenic mouse was used to assess the immunogenicity of the HLA-A0201 binding PSA peptides. Mice of the B1O background (transgenic for the A2Kb chimeric gene) were purchased from the Scripps Clinic in California, USA. Mice were injected subcutaneously at the base of the tail with a dose of inoculum prepared by emulsifying 100.0 μg of the test peptide and 100.0 μg of an I-A^b-restricted peptide (described in Milich, D. R. et al. (1987) J. Immune 139: 1223-1231) in incomplete Freund's adjuvant (IFA). Spleens of the experimental animals were collected on the 10th or 11th day post immunization. Spleenocytes of the experimental mice were prepared and cultured to enrich for CTLs before being assessed for effector activity. In vitro re-stimulation of the in vivo generated CTLs was performed by co-culturing in a 25 cm^2 tissue culture flask 3×10^7 responder cells (i.e. spleenocytes) with 1.3×10^7 irradiated autologous LPS (lipopolysaccharide)-blasts which had been pulsed with the respective peptide (100.0 μg per 10^8 cells). Cultures were kept in a 37° C., humidified CO2 incubator for 6-7 days before being tested for effector function in a standard 4 hr in vitro ^51Cr-release CTL assay as follows. The responders were harvested from the 6-7 day cultures and washed twice with RPMI-1640 medium (without bovine serum). […] Supernatant aliquots were then removed and counted for radioactivity.

[3] = 125.0 μM peptide overnight at 37° C., then 3.0 hr de-stabilization step, FI of 0.5 or greater deemed significant

Sequence | Fluorescence Index (FI) [1, 3] | Immunogenicity / epitope-specific CTL response [2] | HLA-A0201 binding as judged by Fluorescence Index (FI) values [1] | Fluorescence Index (FI) ([1]; 125.0 μM peptide, analysis did not include 3 hr de-stabilization step)
DLHVISNDV [CLP-317] | 0 | – | – | –
DLPTQEPAL (CLP315) [CLP-315, PSA derived peptide, preproprotein positions 140-148] | 0 | – | – | –
KLQCVDLHV (CLP316) [CLP-316, PSA derived peptide, preproprotein positions 170-178] | 2.7 | immunogenic and capable of eliciting an epitope-specific CTL response | demonstrated HLA-A0201 binding | –
MWVPVVFL (CLP313) [CLP-313, PSA derived peptide, preproprotein positions 1-8] | 1.0 | – | demonstrated HLA-A0201 binding | –
PLYDMSLLK (CLP320) [CLP-320] | – | – | does not exhibit binding | 0.2**
VLVHPQWVL [CLP-314] | 1.1 | – | demonstrated HLA-A0201 binding | –
